Measurements from the supplement of paper PMC12455559.
± gives the standard deviation of the averaged measurements.

Experiments:
[1] = melting temperature (DSF); higher = more thermostable
In short: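 After expression in E. coli C41(DE3), the candidate enzymes were bound to nickel beads and released with SUMO protease. Their melting temperature was found by differential scanning fluorimetry with Sypro Orange on a Bio-Rad CFX96. Each sealed PCR plate well held 45 μL enzyme (0 to 0.3 mg/mL) plus 5 μL 5X dye, and fluorescence was read for 250 cycles from 25 °C at 0.3 °C per cycle (ramp 0.3 °C/s).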

[2] = purified protein yield per well (BCA); higher = higher soluble expression
In short: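 Each candidate enzyme was grown in E. coli C41(DE3) in a 2 mL autoinduction culture (100 µg/mL kanamycin; 2 h at 37 °C, then 40 h at 18 °C) and purified robotically via Ni-charged magnetic beads with SUMO protease cleavage. Purified protein yield per well was assessed using the Pierce Rapid Gold BCA kit. Readings below 25 ug (0.1 mg/mL) are beneath the detection threshold.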

[3] = PET hydrolysis, aromatic products released after 48 h (umol product/mg enzyme); higher = more PET depolymerization activity
In short: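 Hydrolysis activity toward PET is reported as supernatant aromatic product per mg enzyme. To measure it, 5 μg (50 μL) of tagless enzyme was incubated with 3.5 mg amorphous PET film or crystalline PET powder in 450 μL buffer for 48 h at 40 or 60 °C in sealed, unshaken plates. The product was quantified by absorbance at 260 and 280 nm relative to buffer blanks.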

[4] = substrate: cryPow, 40 °C, pH 4.5
[5] = substrate: cryPow, 40 °C, pH 5.5
[6] = substrate: cryPow, 40 °C, pH 6.5
[7] = substrate: cryPow, 40 °C, pH 7.5
[8] = substrate: cryPow, 60 °C, pH 4.5
[9] = substrate: cryPow, 60 °C, pH 5.5
[10] = substrate: cryPow, 60 °C, pH 6.5
[11] = substrate: cryPow, 60 °C, pH 7.5
[12] = substrate: cryPow, 40 °C, pH 8.5
[13] = substrate: aFilm, 40 °C, pH 4.5
[14] = substrate: aFilm, 40 °C, pH 5.5
[15] = substrate: aFilm, 40 °C, pH 6.5
[16] = substrate: aFilm, 40 °C, pH 7.5
[17] = substrate: aFilm, 60 °C, pH 4.5
[18] = substrate: aFilm, 60 °C, pH 5.5
[19] = substrate: aFilm, 60 °C, pH 6.5
[20] = substrate: aFilm, 60 °C, pH 7.5
[21] = substrate: cryPow, 60 °C, pH 8.5

Sequence | melting temperature [1] [C] | purified protein yield per well [2] [µg] | PET hydrolysis [3, 4] | PET hydrolysis [3, 5] | PET hydrolysis [3, 6] | PET hydrolysis [3, 7] | PET hydrolysis [3, 8] | PET hydrolysis [3, 9] | PET hydrolysis [3, 10] | PET hydrolysis [3, 11] | PET hydrolysis [3, 12] | PET hydrolysis [3, 13] | PET hydrolysis [3, 14] | PET hydrolysis [3, 15] | PET hydrolysis [3, 16] | PET hydrolysis [3, 17] | PET hydrolysis [3, 18] | PET hydrolysis [3, 19] | PET hydrolysis [3, 20] | PET hydrolysis [3, 21]
QSPSAAANPYERGPDPTVSSVAAQRGTFATAEVTVPPGNGFNGGKIYYPTDTSLGTWGAVAAVPGYTARWSAEGAWMGPWLASFGFVVIGIDTNSPNDFDTARGTQLLAALDYLTQKSPVRDRVDPSRLGVIGHSMGGGGAISAAERRPSLKAALPLAPFSPSQNLSSLRVPTMIMGARDDGTVTPSYLDGLYGGMPATTQSAYIELTGGGHGFPTWGNSNVTRRTIPWLKIFLDNDTRYTQFLCPSPADRTGVSRSQTKCPYVPPGTTTPPPSGGQIVGAGSGRCLDVPNASQTNGTQLQLWDCSANANQKWARTGTGELRVYGNKCLDAEGAGTSPGTRVIIWDCHGGQNQRWNVNTSGTITRADPVCAWTRKATAPGTAPRRSWGTAMAGPASAGPSGSED [TEP122] | 54.1 | 186 | < 3 | < 3 | < 3 | < 3 | < 3 | < 3 | < 3 | < 3 |  |  |  |  |  |  |  |  |  | 
QSSNPYQRGPAPTERSIEASRGPFAVAQTTVSRLSATGFGGGTIYYPTDTSQGRFGGVAISPGFTALQSSIAWLGPRIASQGFIVFTIDTITTLDQPAQRGDQLLAALDYLVQRSPAAVRDRLDPTRLAVMGHSMGGGGTLEAAKKRPSLKAAIPLTGWNLDTIWNDLRVPTLVVGAQLDLIAPILTFSLPFYNTIPASTEKVYLELAGASHFAPNLPDTNIAKYSIAWLKRWVDNDTRYTQFLCPGPRFELAISNYMSSCPM [DP056] | 56.2 | 36 |  | < 3 | < 3 | 4 |  |  |  |  | 6 |  |  |  |  |  |  |  |  | 
QSSSAAANPYERGPAPTVSSVAAQRGTFATAEVTVPPGNGFNGGKIYYPTDTSLGTWGAVAAVPGYTARWSAEGAWMGPWLASFGFVVIGIDTNSPNDYDTARGTQLLAALDYLTRKSPVHDRVDPNRLGVIGHSMGGGGAISAAERRPSLKAAVPLAPFSPSQNLSSLRVPTMIMGARDDGTVTPSYLDGLYSGMPAATQSAYIELTSGGHGFPTWGNSHVTRRAIPWLKIFLDNDTRYTQFLCPSPADSREVSRSQTKCPYVPPGGTTTPPSGEQIVGAASGRCLDVVNSSQTSGAQAHPWDCADRPGQKWARTDAGELRVYSNKCLDAEASGTSAGTRVVIWACHGRQNQRWNVNANGTITSVPSGLCLDTYNGGTGNGAQSVLGNCNGASTQRWTLR [TEP086] | 56.8 | 385 | < 3 | < 3 | < 3 | < 3 | < 3 | < 3 | < 3 | < 3 |  | < 3 | < 3 | < 3 | < 3 | < 3 | < 3 | < 3 | < 3 | 
QSSSCSLMGDVNESNGVDIVDALLIAQAYVGLNPEMEYNPCADVDCSGSMNIVDALLVAQKYVGLISNFPCQISPEPTTEPTSEPVLFIACGSSSAVGSFQADEYFSGGNTHSNSNSVDISRITVNTPPAGLFNNERYGEMSYNIPGLSAGETYTVTLYFAETYLSSSGSRLFNVSINHSDVLTSFDIYDSAGGQNIAVSYSFITTADNSGNILIDFASVTENPKINGIAIMAGIGPTNVPTPEPTPTPENSGFQRGPDPSLASISANRGTFATAELTFPAGNGFGGGFIYYPTDTSLGTWGAVAICPGGSAKFANEETWMGHWLASFGFVVIGIETNNTFDFPESRGTQLLAALDYLVQKSAVKDRVDPDRLMVMGHSMGGGGAFHAALARSSLKTMVALAPWFNTNLTSPSLSNLRMPTMVISARNDTVVTPASCSAIYDKIPTSTQRAWVELAADDHLGFIKPNYTEMRVLIPWMKIFLDSDERYVQFLCPMANSSNISIYKNSCPLVP [TEP098] | 51.7 | 50.5 | < 3 | < 3 | < 3 | < 3 |  |  |  |  |  |  |  |  |  |  |  |  |  | 
QTNPFQRGPAPTEATLEATRGPMATSQFTVSRPSGYRAGTVYYPTNAGGTVGGIVVVPGYTAYQSDINWWGPRLASWGFIVMTIDTNSTLDQPASRSRQQLAALDQLATLSRTSSSPIYNKLDTNRMGVMGWSMGGGGSLISTENRPSLKASIPFAPWNSTENFSSVTVPTLIIACQDDSIAPVYSHASPFYNSMTRNPKQFLEVRGEGHYCANSSNSDKDFLGKKGVAWMKRFMDNDTRFTTFACTNQESSLDVSDFRTARCS [DP032] | 44.5 | 38 |  | < 3 | < 3 | < 3 |  |  |  |  | < 3 |  |  |  |  |  |  |  |  | 
QTNPYQKGPAPTVANLEAARGSFAVSSTSISSLSATGFGGGSLHYPTAAGTYGLIAVAPPYLAQSSSIAWLGPRLASHGFVVVMIDVNSTLDFPESRSRQQLAAIDYAIAQNARRTSPIYGKVDTTRRGVTGHSMGGGASILTARNSPANIKGAFPLTPWSSDKNFSNLQVPTGYLACQDDTVAGNADHSLNFYNRMPASTPKGYYELRGETHFCPQSTTNNPVIGKYLVAWMKRFVDNDTRFSPFLSGALPNADLSSGRFSVLRTSGL [DP075] | 49.3 | 33 |  | < 3 | < 3 | < 3 |  |  |  |  | < 3 |  |  |  |  |  |  |  |  | 
QYQKGPDPTTSSLERAGSFATRTISVSSLAASGFGGGRIYYPTASGSYGVIAVSPGYTGTASTMYFWGERLSSHGFVVIVIETNTLLDQPGSRANQLMAALNYTVSQGNSRTSALYGKVDGNRRGVAGHSMGGGGTLIAAADNASLKAAVPMAPWNLSSLSFRGIRVPTMIFGCQSDAIAPVNTHAVPFYNAIPSSTKKGYVEMRLDDHFCVMNGGGHYETLGKLGISWFKRFIDEDTRYSKFLCGTEYNATVRSTEVSDSKNNCPY [DP039] | 47.8 | 57 |  | < 3 | 3 | 4 |  | < 3 | < 3 | < 3 | 3 |  |  |  |  |  |  |  |  | < 3
QYQKGPDPTVAGLERDGTFAIRTTTVSRLSASGFGGGTIYYPTATGSYGVVAVSPGFTAYQSSISWIGSRLASHGFVVITIDTNTTSDQPDSRARQLKAALDKVVSLASSRTNVLYGKVDSSRLAVAGHSMGGGGSLAAARDYPSLKASVPLAPWHTTKSFSTVRVPTLIVGADGDTVASVTSHSIPFYTSIPSSTPKGYLELNNEDHFFPQDSGEYGLVGKYMISWFKRFVDSDTRYSPFLCGAPHQTQIANTLRVSDSRTNCPY [DP038] | 56.2 | 54 |  | 6 | 55 | 59 |  | < 3 | < 3 | < 3 | 54 |  |  |  |  |  |  |  |  | < 3
QYQKGPDPTVSALERTGSFATRTTTVSRTSASGFGGGTIYYPTASGSYGAIAISPGFTAYQSSISWMGTRLASHGFVVITIDTITTSDQPDSRGRQLKAALDKVVSLSRSSSSPIYNKVDTTRLAVAGHSMGGGGTLAAARDYPSLKAAVPLAPWHTTKSWSRVTVPTLIIGGSTDTIASVGLHSIPFYTSLPSSTNKAYMELSGEGHFFPQTSSNYPLVGRYMISWFKRFVDGDSRYSPFLCGAQHQADLGLFSDISDYRENCPY [ESM169] | 61.3 | 219 | < 3 | 15 ± 2.8 | 32.5 ± 0.71 | 57 ± 11 | < 3 | 9 | 24.5 ± 2.1 | 29 ± 1.4 |  | < 3 | 6 ± 1.4 | 10.5 ± 0.71 | 18.5 ± 0.71 | < 3 | < 3 | 6.5 ± 0.71 | 6 ± 1.4 | 
RPAAPADSPYQRGPDPTVSSVAAQRGTFATAELTVPPGNGFNGGKIYYPTDTSQGTWAAVAAVPGYTAKWAAEGAWMGPWLASFGFVVIGIDTNSPNDYDTARGTQLLAALDYLTQRSPVRDRVDPGRLGVIGHSMGGGGAINAAERRPSLKAALPLAPFSPSQNLSTLRVPTMIMGARDDGTVTPSYLNGLYGGMPATTPSAYIELTSGGHGFPTWGNSNVTRRTIPWLKIFLDEDTRYTQFLCPSLPDRTGISRSQVTCGSVPGDGTTPPPATGRQVVGAASGRCLDVPGSSQANGTQLQLWDCLDQAGQKWARTDAGELRVLGGKCLDAEASGTAPGTRAVVWDCHGGTNQRWNVTPDGTITSAQSGLCLDAYNAGTANGTRTVLWTCNGGSNQRWTWR [TEP102] | 60.4 | 252 | 5.5 ± 0.71 | 13 ± 2.8 | 25.5 ± 0.71 | 26 ± 1.4 | < 3 | < 3 | < 3 | < 3 |  | < 3 | < 3 | < 3 | < 3 | < 3 | < 3 | < 3 | < 3 | 
RPASAQDNPYERGPAPTVSSVAAQRGTFATAELTVPPGNGFNGGKIYYPTDTSLGTWGAVAAVPGYTAKWAAEGAWMGPWLASFGFVVIGIDTNSPNDYDTARGTQLLAALDYLTQKSAVRDRVDPNRLGVIGHSMGGGGAISAAVRRPSLKAALPLAPFSPSQNLSTLRVPTVIMGARDDGTVTPSYLDGLYGGMPAGTQSAFIELSSGGHGFPTWGNSNVTRRMIPWLKIFLDNDTRYTQFLCPSLADTSGVSRSKLKCPYVPPGGTTPPPPSGGPIVGAASGRCLEVPNSSQTNGTQVQLWDCLDRAGQKWTRTAAGELRVYGTKCLDAEASGTSPGTRVVIWDCHGGQNQQWNVNSNGTITSARSGLCLDAYNAGTGNGTQGVLWNCNGGANQRWALG [TEP024] | 61 | 368 | < 3 | 4.5 ± 0.71 | 11.5 ± 2.1 | 14.5 ± 0.71 | < 3 | < 3 | < 3 | < 3 |  | < 3 | < 3 | < 3 | < 3 | < 3 | < 3 | < 3 | < 3 | 
RPASAQDNPYERGPDPTVSSVAAQRGTFATAEVTVPPGNGFNGGKIYYPTDTSKGTWGAVAAVPGYTAKWAAEGAWMGPWLASFGFVVIGIDTNSPNDYDTARGTQLLAALDYLTQKSPVRDRVDPNRLGVIGHSMGGGGAISAAERRPSLKAALPLAPFSPSQNLSSLRVPTMIMGARDDGTVTPSYLNGLYAGMPAATPSAYIELTSGGHGFPTWGNSNVTRRTIPWLKIFLDNDTRYTQLLCPSPADRTGVSRSQVKCAYVPGGGTTPPPPSSGQIVGAASARCLDVPNSSQTNGTQLQLWDCLDQTSQKWARTDAGELRVYGNKCLDAEASGTSAGTRAIIWDCHGGQNQRWNVNANGTITSARSGLCLDANNAGTANGTQAILWTCNGGSNQRWTLR [TEP097] | 64.6 | 270 | 8 | 13 ± 1.4 | 31 ± 7.1 | 30.5 ± 2.1 | < 3 | 4.5 ± 0.71 | 4.5 ± 0.71 | 2 ± 2.8 |  | < 3 | < 3 | < 3 | < 3 | < 3 | < 3 | < 3 | < 3 | 
